The target in assay [1] is SARS-CoV-2 RBD, truncated version (residues 333 to 529) used for crystallization (SARS-CoV-2, UniProt P0DTC2). Nature of the assay: crystal structure. To be noted: both partners purified.
Assay [2] deals with SARS-CoV-2 RBD, truncated version (residues 333 to 529) (SARS-CoV-2, UniProt P0DTC2). Nature of the assay: crystal structure. To be noted: both partners purified.

B1: COVA1-16 Fab (Fab, V domains shown)
VH: QVQLVQSGAEVKKPGASVKVSCKASGYTFTSYYMHWVRQAPGQGLEWMGIINSSGGSTSYAQKFQGRVTMTRDTSTSTVYMELSSLRSEDTAVYYCARPPRNYYDRSGYYQRAEYFQHWGQGTLVTVSS
VL: DIQLTQSPSSLSASVGDRVTITCQASQDISNYLNWYQQRPGKAPKLLIYDASNLETGVPSRFSGSGSGTDFTFTISSLQPEDIATYYCQQYDNPPLTFGGGTKLEIK
For B1, in assay [1], the binding result is “binds”.

B2: COVA1-16 Fab (Fab, V domains shown)
VH: QVQLVQSGAEVKKPGASVKVSCKASGYTFTSYYMHWVRQAPGQGLEWMGIINSSGGSTSYAQKFQGRVTMTRDTSTSTVYMELSSLRSEDTAVYYCARPPRNYYDRSGYYQRAEYFQHWGQGTLVTVSS
VL: DIQLTQSPSSLSASVGDRVTITCQASQDISNYLNWYQQRPGKAPKLLIYDASNLETGVPSRFSGSGSGTDFTFTISSLQPEDIATYYCQQYDNPPLTFGGGTKLEIK
As to B2, the binding result in assay [2] is reported as “binds”.
